B1: HA-tagged mPR mutant S56A/S180A (receptor)
chain: not shown
notes: also called mPR-3HA S56A/S180A; not shown: C-terminal 3xHA tag
B2: HA-tagged mPR mutant S56A (receptor)
chain: not shown
notes: also called mPR-3HA S56A; not shown: C-terminal 3xHA tag
B3: HA-tagged mPR mutant S56A/C128S/S180A (receptor)
chain: not shown
notes: not shown: C-terminal 3xHA tag
B4: HA-tagged mPR mutant S180A (receptor)
chain: not shown
notes: also called mPR-3HA S180A; not shown: C-terminal 3xHA tag

molecular target: T1, deleted in colorectal cancer (DCC) (human, UniProt P43146 26-1447); assay: co-immunoprecipitation (anti-HA) from transfected MCF-7 cells, Western blot with anti-DCC AF5
T1 construct: Endogenous DCC of MCF-7 cells, detected by Western blot in the anti-HA immunoprecipitate; also called DCC/Unc-40
Description: MCF-7 breast cancer cells were transfected by Lipofection with 5 μg of pcDNA3.1 containing HA-tagged mPR-wt, tagged mutant S56A, S180A, S56A/S180A, or tagged mutant S56A/C128S/[…]. After transfection of 2×10⁶ cells they were cultured in RPMI-Medium with 5% FCS. For IP the cells were trypsinized, counted and cell pellets were snap frozen and stored at −80° C.
Beads were separated by centrifugation and stored at −80° C. […] Incubation was performed for 16 h at 4° C. in a rotating tube. Then, beads were separated by centrifugation and washed twice with ice cold lysis buffer.
For PAGE gel-loading buffer/mercatoethanol was added to beads and the final supernatant, heated to 95° C. for 5 min and loaded on a 10% polyacrylamide gel. After separation of the proteins, western blot was performed onto nitrocellulose membrane. Transfer was controlled by Ponceau-red staining visualizing protein bands. After destaining the membranes were blocked for 16 h at 4° C. with 5% milkpowder/0.05% Tween. The next day membranes were incubated with mouse monoclonal anti-DCC antibody (1:20) (Biozol/Abcam) for 2 h at RT followed by biotinylated anti-mouse IgG antibody (Vecta Stain). For detection, membranes were incubated with streptavidin/HRP complex (DAKO) for 2 h at RT followed by enhanced chemiluminescence (ECL) treatment and measurement of chemiluminescence using a Lumiimager (Roche). As a loading control, membranes were incubated with rabbit polyclonal Actin I-19 antibody (Santa Cruz).

T1 sequence (P43146 26-1447 limits assumed): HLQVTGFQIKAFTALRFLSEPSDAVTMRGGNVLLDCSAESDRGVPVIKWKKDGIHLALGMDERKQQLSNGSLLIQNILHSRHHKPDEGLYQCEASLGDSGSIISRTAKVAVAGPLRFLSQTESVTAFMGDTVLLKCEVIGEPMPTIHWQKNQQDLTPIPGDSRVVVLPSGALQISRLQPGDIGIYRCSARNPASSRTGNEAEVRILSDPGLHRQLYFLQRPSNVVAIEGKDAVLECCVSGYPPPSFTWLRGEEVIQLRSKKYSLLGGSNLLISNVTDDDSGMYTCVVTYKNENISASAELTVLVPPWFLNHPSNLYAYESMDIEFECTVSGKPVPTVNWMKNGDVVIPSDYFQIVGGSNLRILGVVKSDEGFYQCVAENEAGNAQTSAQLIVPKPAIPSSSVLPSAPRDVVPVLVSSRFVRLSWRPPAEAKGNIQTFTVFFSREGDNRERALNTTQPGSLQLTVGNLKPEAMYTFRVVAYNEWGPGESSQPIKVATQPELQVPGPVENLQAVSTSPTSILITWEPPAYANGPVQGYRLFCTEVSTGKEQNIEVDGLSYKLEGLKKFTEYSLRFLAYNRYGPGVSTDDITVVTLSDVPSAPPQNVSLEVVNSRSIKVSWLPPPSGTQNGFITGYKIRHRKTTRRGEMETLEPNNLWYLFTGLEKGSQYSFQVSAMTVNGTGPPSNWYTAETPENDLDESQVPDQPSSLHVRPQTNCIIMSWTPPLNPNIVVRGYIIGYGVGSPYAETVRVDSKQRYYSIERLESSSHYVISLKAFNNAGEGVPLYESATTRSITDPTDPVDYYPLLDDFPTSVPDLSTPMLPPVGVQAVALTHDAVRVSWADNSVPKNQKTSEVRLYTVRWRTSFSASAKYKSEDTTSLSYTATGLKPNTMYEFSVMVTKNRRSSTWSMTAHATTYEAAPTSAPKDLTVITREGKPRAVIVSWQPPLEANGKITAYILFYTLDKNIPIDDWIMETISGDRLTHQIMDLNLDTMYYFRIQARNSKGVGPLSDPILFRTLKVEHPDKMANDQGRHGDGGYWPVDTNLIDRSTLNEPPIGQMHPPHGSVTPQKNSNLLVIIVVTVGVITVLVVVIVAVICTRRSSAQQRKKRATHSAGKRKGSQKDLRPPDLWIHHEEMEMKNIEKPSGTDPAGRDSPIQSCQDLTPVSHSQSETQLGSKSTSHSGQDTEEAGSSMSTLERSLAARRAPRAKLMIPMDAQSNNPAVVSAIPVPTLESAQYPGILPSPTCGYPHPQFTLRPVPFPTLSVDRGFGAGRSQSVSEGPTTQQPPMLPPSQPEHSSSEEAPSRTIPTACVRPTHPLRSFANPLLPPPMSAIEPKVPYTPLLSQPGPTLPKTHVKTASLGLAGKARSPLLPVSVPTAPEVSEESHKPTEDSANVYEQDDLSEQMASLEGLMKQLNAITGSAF

Row | binding result | Binder
1 | no binding | B1
2 | no binding | B2
3 | no binding | B3
4 | no binding | B4
